Usually Kd stands for the free concentration of one partner at which half of the binding sites on the other are occupied at equilibrium, for simple one-to-one binding.

In assay [1] the target is T1, TGF-β1 (Homo sapiens, UniProt P01137).
T1 construct: The mature processed cytokines produced from the members of the gene family show almost 100% amino acid identity between species; purchased Collaborative Research (Bedford, Mass.)
Nature of the assay: BIAcore surface plasmon resonance, binding to immobilized TGF-β1. To be noted: ligand TGF-β1. How it is done: (§1) In this system, a purified protein serving as the ligand is covalently coupled to a carboxymethylated dextran surface, and binding molecules (i.e. the analyte) are passed in a fluid phase across the surface. Binding of the analyte to ligand causes a change in reflected light which is directly proportional to mass bound, and is measured in arbitrary response units (R.U.). Analyte-ligand binding is observed as both increasing response with time during the injection of analyte, and the difference in the position of the baseline before and after injection.
(§2) Schuster, R. V. Swanson, L. A. Alex, R. B. Bourret, M. I. Simon, Nature 365, 343 (1993). 1000 R.U. equals approximately 1 ng/mm^2. The running buffer was 20 mM Hepes (pH 7.2), 150 mM NaCl and the flow rate for all sensorgrams was 3 μl/min.
(§3) Regeneration of the surface to remove bound analyte was done by injection of 10 μl of 20 mM NaOH. To cyclize TRH1 peptides, the material was reduced with 5 mM DTT then brought to a final concentration of 60 μM in 25 mM ammonium acetate (pH 8.5). After stirring in the dark for 30 min at 20° C. with 30 mM potassium ferricyanide, the peptide was mixed with AG3-X4A resin (BioRad), filtered, lyophilization and desalted on a 50×2.5 cm column of Biogel P2 (Pharmacia) developed in water, and further purified by reverse phase HPLC.
(§4) Injection volumes were 36 μl for FIG. 2, 4 and 5 and 45 μl for FIG. 3. […] Protein concentrations in each experiment were (FIGS. 2 and 3), 2, 5, 10, 20, 30, 40 μM; (FIG. 4), 0.21, 0.31, 0.41, 0.62, 0.82, 1.24 μM; (FIG. 5), 0.22, 0.29, 0.44, 0.59, 0.88 μM. R.U. for the immobilized cytokine in each experiment was 2850 R.U. for FIGS. 2 and 3; 7450 R.U. for FIG. 4, and 5300 R.U., for FIG. 5 respectively.
(§5) Data was analyzed using the BIA-evaluation software (Pharmacia Biosensor). The association rate constant, kass, was calculated by first plotting the change in response with time versus response (i.e. dR/dT vs R). When the slope of the line from this graph is plotted versus analyte concentration (i.e d(dR/dT)/dR vs C), kass is obtained from the slope of the line. The dissociation rate constant, kdiss, is obtained during the decrease in response with time after analyte injection is discontinued. Specifically, kdiss was obtained from the slope of the line in a plot of ln(Rt1 /Rtn) vs time. The affinity constants were calculated from KD =kdiss /kass. Variance for kass is standard error of the linear regression plot, and for kdiss values are the mean ± range of 3 or more independent injections.
A general note: SPR reads the build-up and loss of mass on a sensor chip optically.

For assay [2], the target named is T2, BMP-2 (Homo sapiens, UniProt P12643).
T2 construct: Genetics Institute, Cambridge, Mass; (gift)
T2 sequence (P12643 283-396): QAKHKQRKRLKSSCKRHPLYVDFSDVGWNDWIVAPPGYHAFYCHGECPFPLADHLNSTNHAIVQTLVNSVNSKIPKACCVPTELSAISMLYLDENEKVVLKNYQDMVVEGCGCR
Nature of the assay: BIAcore surface plasmon resonance, binding to immobilized BMP-2. The conditions noted are these: ligand BMP-2. As for the experimental part:
as §1, §2, §3, §4, §5

Assay [3] addresses T3, BMP-6 (Homo sapiens, UniProt P22004).
T3 sequence (P22004 375-513): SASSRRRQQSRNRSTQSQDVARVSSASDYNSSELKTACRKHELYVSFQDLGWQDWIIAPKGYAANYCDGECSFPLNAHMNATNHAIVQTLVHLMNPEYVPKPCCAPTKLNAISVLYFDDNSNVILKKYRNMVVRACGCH
Nature of the assay: BIAcore surface plasmon resonance, binding to immobilized BMP-6. The conditions noted are these: Table 1; ligand BMP-6. As for the experimental part: as §1, §2
Regeneration of the surface to remove bound analyte was done by injection of 10 μl of 20 mM NaOH. To cyclize TRH1 peptides, the material was reduced with 5 mM DTT then brought to a final concentration of 60 μM in 25 mM ammonium acetate (pH 8.5). […]
Data was analyzed using the BIA-evaluation software (Pharmacia Biosensor). The association rate constant, kass, was calculated by first plotting the change in response with time versus response (i.e. dR/dT vs R). […] The affinity constants were calculated from KD =kdiss /kass. […]

In assay [4] the target is T4, TGF-β1 binding to TβRII (Homo sapiens, UniProt P01137).
T4 construct: The mature processed cytokines produced from the members of the gene family show almost 100% amino acid identity between species; purchased R&D Systems
Nature of the assay: Competition of TGF-β1 binding to immobilized TβRII (Quantikine ELISA). The conditions noted are these: 40 pM TGF-β1; fetuin 40 μM, TRH1 peptide from TβRII 20 μM; FIG. 14. How it is done:
Inhibition of TGF-β1 binding to TβRII was carried out using the Quantikine ELISA kit (R&D Systems). In particular, 96 well plates were pre-coated with the extracellular domain of TβRII. […] This was followed by a 5 minute incubation with the TβRII coated ELISA wells with shaking, washing as recommended, and a 1 hr incubation with the polyclonal anti-TGF-β1 antibody. Plates were developed as per the instructions, and determinations were made in triplicate.
Background: ELISA stands for enzyme-linked immunosorbent assay.

The subject of assay [5] is rat bone marrow stromal cells. The assay can be described thus: Dexamethasone-treated rat bone marrow stromal cell cultures (proliferation, mineralization, TGF-β levels). The format is cell-based. How it is done:
The methods used in the studies described in this example and illustrated in FIGS. 16 and 17 are as follows. Femoral bones were removed under aseptic conditions from adult male Wistar rats (120 g), cleaned of adherent soft tissues, and washed extensively in antibiotics. The distal ends were removed and the marrow contents were flushed out with 10 ml of culture medium. The cells were dispersed by repeated passage through a 20 gauge needle and incubated in alpha-MEM supplemented with 15% fetal bovine serum, ascorbic acid (50 μg/ml), antibiotics (penicillin G 100 μg/ml, gentamicin 50 μg/ml, fungizone 0.3 μg/ml) and 10 mM β-glycerophosphate. […] Following 6 days of culture at 37° C. in a humidified atmosphere containing 5% CO2 in air, the cells were re-plated at a density of 1×10^2 cell/mm^2 in 96 multi-well plates (Falcon 3047), and grown for another 12-14 days. At the end of culture, the cells were fixed and stained for calcium with alizarin red-s for quantification of bone nodule area (reported as mineralized area (mm^2)/well). To assess mineralized tissue formation in the cultures morphometric measurements were carried out with the aid of a Bioquant IV system (Bioquant, Nashville, Tenn., U.S.A.) using a Leitz Orthoplan microscope. TGF-β in culture supernatants taken 4 days prior to scoring mineralization were measured with and without heat activation (80° C. for 10 min) using the Mink cells as the indicator cell line as described in FIG. 12.

Where [6] appears, read: Table 2 (calculations repeated).

T1 sequence (P01137 279-390 limits assumed): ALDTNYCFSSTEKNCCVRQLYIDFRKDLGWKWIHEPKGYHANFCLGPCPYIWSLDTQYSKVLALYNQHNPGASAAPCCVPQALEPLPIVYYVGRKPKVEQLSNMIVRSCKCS
T4 sequence (P01137 279-390 limits assumed): as above

Regarding “Fetuin: Bovine fetal fetuin, glycoprotein obtained by ammonium sulfate fractionation of FCS and gel filtration (Sigma)”, the kass is 670 ± 400 M⁻¹ s⁻¹ in assay [1] (Table 1); 670 M⁻¹ s⁻¹ in assay [1] (Table 1, listed as fetuin); 870 ± 270 M⁻¹ s⁻¹ in assay [1] (setting [6]); 1700 ± 300 M⁻¹ s⁻¹ in assay [2] (Table 1); 1700 M⁻¹ s⁻¹ in assay [2] (Table 1, listed as fetuin); 2400 ± 1200 M⁻¹ s⁻¹ in assay [2] (setting [6]). In assay [3], this substance returned a kass of 2900 ± 500 M⁻¹ s⁻¹. Further, the kdiss in assay [1] (Table 1, listed as fetuin) is 0.16 s⁻¹; in assay [1] (setting [6]) it was 0.0019 s⁻¹; in assay [2] (Table 1, listed as fetuin), 6.2e-05 s⁻¹; in assay [2] (setting [6]), 6.5e-05 s⁻¹. Besides, the Kd in assay [1] (Table 2 (calculations repeated), KD = kdiss/kass, listed as b-Fetuin) is 2.2 µM; in assay [2] (Table 2 (calculations repeated), KD = kdiss/kass), 0.027 µM. The “inhibition of TGF-β1 binding to immobilized recombinant TβRII” value in assay [4] was “competitive inhibitors”. Besides, the “BMP-2 induced osteogenesis in the cultures” value in assay [5] (data not shown) is reported as “could be blocked”. Further, the “deposition of calcium-containing matrix” value in assay [5] (dexamethasone-treated bone marrow cultures, latter two weeks, FIGS. 16 and 18) is given as “inhibited deposition of calcium-containing matrix”. Moreover, the “cell number during the first week of culture (proliferative phase)” value in assay [5] (dexamethasone-treated, FIG. 15) is on record as “stimulated an increase in cell number”.

The values above are taken from US5981483A, “Compositions comprising modulators of cytokines of the TGF-β superfamily” (Mount Sinai Hospital Corporation, priority 1997, dated 1999).
